The target in one data set is Human hemoglobin (Hb) (human, UniProt P69905;P68871). The experiment in a line: mass photometry.
The data set “mass photometry” concerns the molecule itself. Briefly: mass photometry.
The data set “native MS” concerns the molecule itself. The experiment in a line: native MS.

Several values for one entry are separate records, joined by “and”; a condition that tells them apart may be missing. Identical values can stand only once. Bounds are passed on as bounds.

Sequence of Human hemoglobin (Hb) (P69905 whole entry, chain 1 of 2): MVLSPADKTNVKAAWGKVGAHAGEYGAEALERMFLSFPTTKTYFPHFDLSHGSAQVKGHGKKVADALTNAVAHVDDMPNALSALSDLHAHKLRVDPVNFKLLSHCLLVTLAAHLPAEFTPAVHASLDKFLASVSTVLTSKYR
Sequence of Human hemoglobin (Hb) (P68871 whole entry, chain 2 of 2): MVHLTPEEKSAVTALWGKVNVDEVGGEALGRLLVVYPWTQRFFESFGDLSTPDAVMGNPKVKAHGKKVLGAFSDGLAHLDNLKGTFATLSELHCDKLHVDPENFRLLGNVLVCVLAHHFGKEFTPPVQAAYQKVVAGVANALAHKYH

B1: Haptoglobin 1-1 (Hp 1-1), dimer of two α1β units (complex)
chain 1: VDSGNDVTDIADDGCPKPPEIAHGYVEHSVRYQCKNYYKLRTEGDGVYTLNNEKQWINKAVGDKLPECEAVCGKPKNPANPVQ
chain 2: ILGGHLDAKGSFPWQAKMVSHHNLTTGATLINEQWLLTTAKNLFLNHSENATAKDIAPTLTLYVGKKQLVEIEKVVLHPNYSQVDIGLIKLKQKVSVNERVMPICLPSKDYAEVGRVGYVSGWGRNANFKFTDHLKYVMLPVADQDQCIRHYEGSTVPEKKTPKSPVGVQPILNEHTFCAGMSKYQEDTCYGDAGSAFAVHDLEEDTWYATGILSFDKSCAVAEYGVYVKVTSIQDWVQKTIAEN
modifications: N-glycans at Asn184, Asn207, Asn211 and Asn241
With B1, the “stoichiometry N” value is 2 Hb(αβ) dimers per Hp 1-1 dimer in the data set with Human hemoglobin (Hb) and 2 Hp (αβ) units in the data set “mass photometry”.

B2: Haptoglobin 2-2 (Hp 2-2), cyclic (α2)n(β)n oligomers (complex)
chain 1: VDSGNDVTDIADDGCPKPPEIAHGYVEHSVRYQCKNYYKLRTEGDGVYTLNDKKQWINKAVGDKLPECEADDGCPKPPEIAHGYVEHSVRYQCKNYYKLRTEGDGVYTLNNEKQWINKAVGDKLPECEAVCGKPKNPANPVQ
chain 2: B1 chain 2
modifications: N-glycans at Asn184, Asn207, Asn211 and Asn241
As to B2, the “stoichiometry N” value is < 7 Hp (αβ) units in the data set “native MS” and 1 Hb(αβ) dimer per Hp (αβ) monomer with Human hemoglobin (Hb).

B3: Haptoglobin 2-1 (Hp 2-1) oligomers from the serum of a single heterozygote donor (complex)
chain 1: B1 chain 1
chain 2: B2 chain 1
chain 3: B1 chain 2
modifications: N-glycans at Asn184, Asn207, Asn211 and Asn241
Regarding B3, the “stoichiometry N” value in “native MS” was 3 Hp (αβ) units and 4 Hp (αβ) units and 5 Hp (αβ) units.

Source of the values: publication PMC7355005 (Proceedings of the National Academy of Sciences of the …, 2020).
